One substance from patent US5733874A, “Stable dry powders” (Novartis Corp., priority 1994, dated 1998) can be followed below.

The nature of the data set: RP-HPLC chromatogram of recombinant hirudin HV1 in water (FIG. 1). Type of data set: physicochemical. The following applies: 1 mg/ml hirudin in water. The method, then: RP-HPLC method: A LiChroCART 125-4 column is used (Merck LiChrospher 100 RP-18 5pm). Solvent A is 0.5% ammoniumacetate in acetonitrile/water (10:90), (v:v); solvent B is 0.5% ammoniumacetate in acetonitrile/water (25:75). The elution is performed at 45° C. using a flow rate of 0.5 ml/min. The binary elution is a linear gradient starting at time zero with 23% solvent B and reaching 46% solvent B after 24 minutes. After 2 min at 70% solvent B the column is equilibrated for 7 rain at 23% solvent B.
A typical chromatogram of recombinant hirudin HV1 (CGP 39393) in water using the RP-HPLC (1 mg/ml hirudin) method is shown in FIG. 1.
In FIG. 1, the relative area of the main peak is 95.15%. Storage of hirudin in water at room temperature results in an increase of by products with time. […] The changes which occur can be accelerated by using temperature stress experiments i.e. by storage at elevated temperatures.

Regarding desulphatohirudin HV1 [CGP 39393], the “relative area of the main peak” value was 95.15%.
